From paper PMC7835349 (Communications Biology, 2021)

How the values were obtained:
[1] = Plasma pharmacokinetics after IV bolus in C.B-17 SCID mouse; format: in vivo; details: mouse, at 10 mg/kg or equivalent
Method: Pharmacokinetic studies were carried out in the female C.B-17 SCID mouse. Either freshly prepared solutions of AZD4320 in 30% hydroxypropyl-β-cyclodextrin or drug-dendrimer conjugates in phosphate buffered saline were injected as a bolus into the tail vein at dosing volume of 5 ml/kg. Blood samples were collected at different time points post dose and analysed as below.
Blood samples were collected from the jugular vein by venepuncture into K2EDTA (as anticoagulant) tubes. Immediately following collection into the K2EDTA tube the samples were mixed gently and kept on crushed ice until centrifugation. Within 30 mins of blood collection, each sample was centrifuged (1500 g for 10 min at 4 °C) to generate plasma which was kept on wet ice at all times in polypropylene tubes. Duplicate 50 μL aliquots were transferred immediately after centrifugation into uniquely labelled polypropylene tubes (‘released’ AZD4320) containing equivalent amount (50 μL) of 0.2 M citric acid solution, inverted 10 times and then stored in a freezer set to maintain a temperature of −80 °C, until analysis.
The concentrations of ‘total’ AZD4320 were determined in plasma by overnight incubation with hydrazine followed by protein precipitation with acetonitrile and subsequent liquid/liquid extraction. Liquid chromatography with mass spectrometric detection (LC-MS/MS, details in Supplementary Table 5) was used to quantitate both ‘released’ and ‘total’ AZD4320.
Sample analyses were performed in batches containing study samples, calibration standards at 10 concentration levels, QC samples at three concentration levels in duplicate and blank samples. The analytical run acceptance criteria for calibration standards and QC samples was that at least 75% of back-calculated concentrations for calibration standards and at least 2/3 of the QC samples (at least 50% at each concentration level) should be within ±20% (±25% at LLOQ) from nominal value.

telemetered dogs = test: Conscious dog telemetry (QRS amplitude and other cardiovascular parameters, tolerability)
[2] = dog, AZD0466 10 mg/kg (3 mg/kg AZD4320 equivalent), 1 h infusion
[3] = dog, AZD0466 30 mg/kg (9 mg/kg AZD4320 equivalent), 1 h infusion
[4] = dog, AZD0466 60 mg/kg (18 mg/kg AZD4320 equivalent), 1 h infusion

## AZD4320-MIDA-PEG2100 [AZD0466]
[1]; 1 hr
  Total Concentration in Plasma as AZD4320, Mean (Fig S9): 117.3 µg/mL
[1]; 3 hr
  Total Concentration in Plasma as AZD4320, Mean (Fig S9): 49.1 µg/mL
[1]; 9 hr
  Total Concentration in Plasma as AZD4320, Mean (Fig S9): 36.3 µg/mL
[1]; 20 hr
  Total Concentration in Plasma as AZD4320, Mean (Fig S9): 8.0 µg/mL
Telemetered dogs; conscious telemetered dogs, 1-hour infusion
  other cardiovascular effects: A small increase in diastolic BP, a transient and delayed-onset small increase in heart rate, a decrease in dP/dt+ (an index of cardiac contractility) and a decrease in PR interval
Telemetered dogs; conscious telemetered dogs, 1-hour infusion, 30 and 60 mg/kg
  effect on QRS amplitude: dose-dependent decrease in QRS amplitude that returned to baseline
Telemetered dogs; dog
  NOEL (no observed effect level), cardiovascular system: 10 mg/kg
  improvement in cardiovascular tolerability based on dose vs AZD4320: 18 fold
Telemetered dogs; dog, 10 mg/kg AZD0466 (equivalent to 3 mg/kg AZD4320)
  effect on QRS amplitude: no effect on QRS amplitude
Telemetered dogs; [2]
  Effects: No effect level
  Tolerated?: Yes
Telemetered dogs; [3]
  Tolerated?: Yes
  ↓QRS amplitude (% decrease): 30%
Telemetered dogs; [4]
  Effects other than QRS amplitude: ↑DBP, ↑HR, ↓dP/dt+, ↓PR interval, ↓LVEDP
  Tolerated?: Yes
  ↓QRS amplitude (% decrease): 33%
